Experiment [1] addresses EaeE37A (EaeSPARDA with E37A in the DREN domain of DREN-APAZ) (Enhydrobacter aerosaccus). Nature of the experiment: SEC-MALS.
In experiment [2] the target is WT EaeSPARDA (binary DREN-APAZ:Ago monomer) (Enhydrobacter aerosaccus). Description: SEC-MALS.
For experiment [3], the target named is WT XauSPARDA (binary DREN-APAZ:Ago monomer) (Xanthobacter autotrophicus strain Py2). Description: SEC-MALS. Background: SEC sorts molecules by how far they enter the pores of the column.
Experiment [4] has as its target XauDREN-APAZ protein (Xanthobacter autotrophicus strain Py2). Description: cryo-EM structure.
The target of experiment [5] is XauE37A (XauSPARDA with E37A in the DREN domain of DREN-APAZ) (Xanthobacter autotrophicus strain Py2). Description: SEC-MALS.
Experiment [6] concerns the target XauHSH (XauSPARDA whose XauAgo carries a 29 aa HSH-tag at the C-terminus) (Xanthobacter autotrophicus strain Py2). Nature of the experiment: SEC-MALS.

For the substance “EaeE37A (EaeSPARDA with E37A in the DREN domain of DREN-APAZ) (complex)”, the stoichiometry N (usually a count of units in the complex or per binding partner) in experiment [1] turned out to be 2.

Regarding “WT EaeSPARDA (binary DREN-APAZ:Ago monomer) (complex)”, in experiment [2], the stoichiometry N stood at 2.

Consider “WT XauSPARDA (binary DREN-APAZ:Ago monomer) (complex)”, for which the stoichiometry N in experiment [3] is 2.

Turning to XauDREN-APAZ protein (natural protein), in experiment [4], the stoichiometry N turned out to be 4.

On to “XauE37A (XauSPARDA with E37A in the DREN domain of DREN-APAZ) (complex)”, for which the stoichiometry N in experiment [5] worked out at 2.

As to “XauHSH (XauSPARDA whose XauAgo carries a 29 aa HSH-tag at the C-terminus) (complex)”, the stoichiometry N in experiment [6] turned out to be 2.

For the origin of these results see article doi:10.1101/2025.04.08.647717.
